Two molecules from patent US20220306710A1 (YEDA RESEARCH AND DEVELOPMENT, published 2022) can be followed below.

Where no end group is shown, it is not given here.

Assay [1] has as its target T1, Tau1 peptide labelled with rhodamine (human, also: rhodamine isothiocyanate label, site not given here).
T1 construct: also called Tau1R; Tau-1R
T1 peptide: GLGDRKDQGGYTMHQD
The experiment in a line: dot blot of mixed labelled peptides on nitrocellulose. An excerpt:
(§1) FIGS. 2A-B. Confirmation of APP and Tau peptide binding by visualization and ELISA. A) Visualization of APP and Tau peptide binding labelled by fluorescein (F) or rhodamine (R). Single labelled peptides were loaded on nitrocellulose membrane [upper row (F) and middle row (R)]. Mixtures were loaded (lower row) from left to right: APP1F+Tau1R, APP1F+Tau2R, APP2F+Tau1R and APP2F+Tau2R. Last sample was a control of APP2F+APP1R. […] B) Peptide inhibition of Tau and APP protein binding. An ELISA plate was coated with Tau protein overnight (ON) at 4° C. PBS, single peptides or their combinations were incubated ON at 4° C. as well. Next day, the plate was washed and blocked with PBS+3% BSA for two hours at RT. The plate was washed again with PBS. Single peptides or their combinations were added to the coated plate for four hours at RT. The plate was washed and APP protein was added to all wells for ON incubation at 4° C. The plate was then washed and anti Aß was added, to test the ability of the different peptides to affect APP protein binding to the Tau coated plate. The plate was developed with anti-mouse HRP (materials and methods section). Samples were in triplicates. Significance labelled as p≤0.05*, p≤0.008**.
(§2) All four candidate peptides were labelled with fluorescein. APP1, Tau1 and Tau2 were also labelled with rhodamine for visualization of peptide binding.

Assay [2] concerns the target T2, Tau2 peptide labelled with rhodamine (human, also: rhodamine isothiocyanate label, site not given here).
T2 construct: also called Tau2R; Tau-2R
T2 peptide: KPGGGQVEVKSEKLDFK
The description is as above.
Excerpt: as §1, §2

Consider ATVIVITLVMLKKKQYTS (also: fluorescein isothiocyanate label, site not given here, also called APP2F) [APP2 peptide labelled with fluorescein], for which the binding result in assay [1] and in assay [2] was “no binding” each time.
Take HFQKAKERLEAKHRERMSQVMRE (also: fluorescein isothiocyanate label, site not given here, also called APP1F; App1F) [APP1 peptide labelled with fluorescein]: the binding result in assay [1] and in assay [2] was “binds” throughout.
